Numbering of substitutions follows the chain as printed. Names and notes keep the numbering of the source.
B1: BrGTR2-A2: Brassica rapa GTR2-A2 protein, SEQ ID NO: 66 (protein, listed as Brassica rapa)
chain: MERKPLEVESTDHQKPSSAVYDGSATAVDSVEEEVQETKLVYRGWKVMPFIIGNETFEKLGIIGTLSNLLVYLTAVFNMKSITAATIINAFSGTINFGTFVAAFLCDTYFGRYKTLTVAVIACFLGSLVILLTAAVPQLHPAPCGIALTCTGPSGGQIAFLLMGLAFLVVGAGGIRPCNLAFGADQFNPKSESGKRGIDSFFNWYFFTFTFAQILSLTLVVYIQSNVSWTIGLTIPVVLMFLACVIFFAGDKLYVKIKASGSPLASIAQVITVAIKKRGLKAVKQPWVNLYNYYPLNYANSKLKYTDQFRFLDKAAILAPEDKLEADGKPTDPWKLCTMQQVEEVKCIVRVLPIWFASSIYYLTITQQMTYPVFQALQSDRRLGSGGFVIPAATYVVFLMTGMTVFIIIYDRVLVPTLRRITGIDTGITLLQRIGTGIFFAFLSLVVSGFVEERRRTFALTKPTLGMAPRKGEISSMSAMWLIPQLTLAGVAEAFGAIGQMEFYYKQFPENMRSFAGSIFYVGGGVSSYLGSFLIATVHRTTQNSAGGNWLAEDLNKGRLDLFYFMIAGILAVNFAYFLVMSRWYRYKGSDDEVTAYETNGDVIKQQDKNKV
B2: BrGTR2 (E192K): BrGTR2-A2 protein with Glu to Lys at position 192 of SEQ ID NO: 66 (protein, listed as Brassica rapa)
chain: B1 chain with E192K
B3: BrGTR2 (G126R): BrGTR2-A2 protein with Gly to Arg at position 126 of SEQ ID NO: 66 (protein, listed as Brassica rapa)
chain: B1 chain with G126R
B4: BrGTR2 (G145R): BrGTR2-A2 protein with Gly to Arg at position 145 of SEQ ID NO: 66 (protein, listed as Brassica rapa)
chain: B1 chain with G145R
B5: BrGTR2 (S359F): BrGTR2-A2 protein with Ser to Phe at position 359 of SEQ ID NO: 66 (protein, listed as Brassica rapa)
chain: B1 chain with S359F

System: Xenopus oocytes
Test: 4-MTB uptake in Xenopus oocytes expressing wildtype or mutant BrGTR2-A2 proteins
Assay type: cell-based
Conditions: 0.5 mM 4-MTB for one hour

| Molecule | 4-MTB imported (pH 5, non-injected oocytes no detectable uptake) | 4-MTB uptake activity of mutant BrGTR2-A2 protein versus wildtype |
| --- | --- | --- |
| B1 | about 2.5 nmol 4-MTB per hour per oocyte |  |
| B2 |  | reduction in glucosinolate uptake |
| B3 |  | almost no uptake activity |
| B4 |  | no significant change in uptake of 4-MTB |
| B5 |  | increased uptake activity |
